Reference: article PMC10449495

Experiments:
[1] = target: IpaB (invasion plasmid antigen B), affinity tag-free recombinant; experiment: assembly with LPS, anion-exchange purification of the complex, SDS-PAGE gel densitometry; S. sonnei LPS, 1x (0.56 w LPS/w protein); 8 uM IpaC + 1 uM IpaB in 5.1 M urea, 37 C 2 h; Q Sepharose HP, eluted at 50% Buffer B; %Band ratio
[2] = target: IpaB (invasion plasmid antigen B), affinity tag-free recombinant; experiment: assembly with LPS, anion-exchange purification of the complex, SDS-PAGE gel densitometry; S. sonnei LPS, 2x (1.12 w LPS/w protein); 8 uM IpaC + 1 uM IpaB in 5.1 M urea, 37 C 2 h; Q Sepharose HP, eluted at 50% Buffer B; %Band ratio
[3] = target: IpaB (invasion plasmid antigen B), affinity tag-free recombinant; experiment: assembly with LPS, anion-exchange purification of the complex, SDS-PAGE gel densitometry; S. sonnei LPS, 4x (2.24 w LPS/w protein); 8 uM IpaC + 1 uM IpaB in 5.1 M urea, 37 C 2 h; Q Sepharose HP, eluted at 50% Buffer B; %Band ratio
[4] = target: IpaB (invasion plasmid antigen B), affinity tag-free recombinant; experiment: assembly with LPS, anion-exchange purification of the complex, SDS-PAGE gel densitometry; S. sonnei LPS, 8x (4.48 w LPS/w protein); 8 uM IpaC + 1 uM IpaB in 5.1 M urea, 37 C 2 h; Q Sepharose HP, eluted at 50% Buffer B; %Band ratio
[5] = target: IpaB (invasion plasmid antigen B), affinity tag-free recombinant; experiment: assembly with LPS, anion-exchange purification of the complex, SDS-PAGE gel densitometry; S. flexneri 6 LPS, 1x (0.56 w LPS/w protein); 8 uM IpaC + 1 uM IpaB in 5.1 M urea, 37 C 2 h; Q Sepharose HP, eluted at 50% Buffer B; %Band ratio
[6] = target: IpaB (invasion plasmid antigen B), affinity tag-free recombinant; experiment: assembly with LPS, anion-exchange purification of the complex, SDS-PAGE gel densitometry; S. flexneri 6 LPS, 2x (1.12 w LPS/w protein); 8 uM IpaC + 1 uM IpaB in 5.1 M urea, 37 C 2 h; Q Sepharose HP, eluted at 50% Buffer B; %Band ratio
[7] = target: IpaB (invasion plasmid antigen B), affinity tag-free recombinant; experiment: assembly with LPS, anion-exchange purification of the complex, SDS-PAGE gel densitometry; S. flexneri 6 LPS, 4x (2.24 w LPS/w protein); 8 uM IpaC + 1 uM IpaB in 5.1 M urea, 37 C 2 h; Q Sepharose HP, eluted at 50% Buffer B; %Band ratio
[8] = target: IpaB (invasion plasmid antigen B), affinity tag-free recombinant; experiment: assembly with LPS, anion-exchange purification of the complex, SDS-PAGE gel densitometry; S. flexneri 6 LPS, 8x (4.48 w LPS/w protein); 8 uM IpaC + 1 uM IpaB in 5.1 M urea, 37 C 2 h; Q Sepharose HP, eluted at 50% Buffer B; %Band ratio
[9] = target: IpaB (invasion plasmid antigen B), affinity tag-free recombinant; experiment: assembly with LPS, anion-exchange purification of the complex, SDS-PAGE gel densitometry; S. flexneri 2a LPS, 2x (1.12 w LPS/w protein); 8 uM IpaC + 1 uM IpaB in 5.1 M urea, 37 C 2 h; Q Sepharose HP, eluted at 50% Buffer B; %Band ratio
[10] = target: IpaB (invasion plasmid antigen B), affinity tag-free recombinant; experiment: assembly with LPS, anion-exchange purification of the complex, SDS-PAGE gel densitometry; S. flexneri 2a LPS, 4x (2.24 w LPS/w protein); 8 uM IpaC + 1 uM IpaB in 5.1 M urea, 37 C 2 h; Q Sepharose HP, eluted at 50% Buffer B; %Band ratio
[11] = target: IpaB (invasion plasmid antigen B), affinity tag-free recombinant; experiment: assembly with LPS, anion-exchange purification of the complex, SDS-PAGE gel densitometry; S. flexneri 2a LPS, 8x (4.48 w LPS/w protein); 8 uM IpaC + 1 uM IpaB in 5.1 M urea, 37 C 2 h; Q Sepharose HP, eluted at 50% Buffer B; %Band ratio
[12] = target: IpaB (invasion plasmid antigen B), affinity tag-free recombinant; experiment: assembly with LPS, anion-exchange purification of the complex, SDS-PAGE gel densitometry; S. flexneri 3a LPS, 1x (0.56 w LPS/w protein); 8 uM IpaC + 1 uM IpaB in 5.1 M urea, 37 C 2 h; Q Sepharose HP, eluted at 50% Buffer B; %Band ratio
[13] = target: IpaB (invasion plasmid antigen B), affinity tag-free recombinant; experiment: assembly with LPS, anion-exchange purification of the complex, SDS-PAGE gel densitometry; S. flexneri 3a LPS, 2x (1.12 w LPS/w protein); 8 uM IpaC + 1 uM IpaB in 5.1 M urea, 37 C 2 h; Q Sepharose HP, eluted at 50% Buffer B; %Band ratio
[14] = target: IpaB (invasion plasmid antigen B), affinity tag-free recombinant; experiment: assembly with LPS, anion-exchange purification of the complex, SDS-PAGE gel densitometry; S. flexneri 3a LPS, 4x (2.24 w LPS/w protein); 8 uM IpaC + 1 uM IpaB in 5.1 M urea, 37 C 2 h; Q Sepharose HP, eluted at 50% Buffer B; %Band ratio
[15] = target: IpaB (invasion plasmid antigen B), affinity tag-free recombinant; experiment: assembly with LPS, anion-exchange purification of the complex, SDS-PAGE gel densitometry; S. flexneri 3a LPS, 8x (4.48 w LPS/w protein); 8 uM IpaC + 1 uM IpaB in 5.1 M urea, 37 C 2 h; Q Sepharose HP, eluted at 50% Buffer B; %Band ratio
[16] = target: IpaB (invasion plasmid antigen B), affinity tag-free recombinant; experiment: assembly with LPS, anion-exchange purification of the complex, SDS-PAGE gel densitometry; S. flexneri 2a LPS, 1x (0.56 w LPS/w protein); 8 uM IpaC + 1 uM IpaB in 5.1 M urea, 37 C 2 h; Q Sepharose HP, eluted at 50% Buffer B; %Band of full-size IpaC divided by %Band of full-size IpaB

B1: IpaC (invasion plasmid antigen C), affinity tag-free recombinant (natural protein)
chain: MEIQNTKPTQTLYTDISTKQTQSSSETQKSQNYQQIAAHIPLNVGKNPVLTTTLNDDQLLKLSEQVQHDSEIIARLTDKKMKDLSEMSHTLTPENTLDISSLSSNAVSLIISVAVLLSALRTAETKLGSQLSLIAFDATKSAAENIVRQGLAALSSSITGAVTQVGITGIGAKKTHSGISDQKGALRKNLATAQSLEKELAGSKLGLNKQIDTNITSPQTNSSTKFLGKNKLAPDNISLSTEHKTSLSSPDISLQDKIDTQRRTYELNTLSAQQKQNIGRATMETSAVAGNISTSGGRYASALEEEEQLISQASSKQAEEASQVSKEASQATNQLIQKLLNIIDSINQSKNSAASQIAGNIRA
- IpaC:IpaB ratio in the complex with LPS (gel densitometry) [1]: 2.6 IpaC:IpaB
- IpaC:IpaB ratio in the complex with LPS (gel densitometry) [2]: 5.6 IpaC:IpaB
- IpaC:IpaB ratio in the complex with LPS (gel densitometry) [3]: 9.4 IpaC:IpaB
- IpaC:IpaB ratio in the complex with LPS (gel densitometry) [4]: 7.2 IpaC:IpaB
- IpaC:IpaB ratio in the complex with LPS (gel densitometry) [5]: 2.1 IpaC:IpaB
- IpaC:IpaB ratio in the complex with LPS (gel densitometry) [6]: 4.1 IpaC:IpaB
- IpaC:IpaB ratio in the complex with LPS (gel densitometry) [7]: 4 IpaC:IpaB
- IpaC:IpaB ratio in the complex with LPS (gel densitometry) [8]: 3.9 IpaC:IpaB
- IpaC:IpaB ratio in the complex with LPS (gel densitometry) [9]: 6.9 IpaC:IpaB
- IpaC:IpaB ratio in the complex with LPS (gel densitometry) [10]: 7.8 IpaC:IpaB
- IpaC:IpaB ratio in the complex with LPS (gel densitometry) [11]: 9.4 IpaC:IpaB
- IpaC:IpaB ratio in the complex with LPS (gel densitometry) [12]: 2.5 IpaC:IpaB
- IpaC:IpaB ratio in the complex with LPS (gel densitometry) [13]: 3.8 IpaC:IpaB
- IpaC:IpaB ratio in the complex with LPS (gel densitometry) [14]: 5.8 IpaC:IpaB
- IpaC:IpaB ratio in the complex with LPS (gel densitometry) [15]: 5.8 IpaC:IpaB
- IpaC:IpaB ratio in the complex with LPS (gel densitometry) [16]: 3.8 IpaC:IpaB
